NFκB-driven luciferase in RAW264.7 cells infected with ΔgogB complemented with GogBΔ264–352 (F-box motif deleted), fold of wild type Salmonella (fold of wild type) and NFκB-driven luciferase in RAW264.7 cells infected with ΔgogB complemented with GogB-NT (C-terminal domain deleted), fold of wild type Salmonella (fold of wild type) data for two substances are collected here from article PMC3386239.

In this test the target is Skp1 (mouse, endogenous in RAW264.7 cells) (mouse (endogenous in RAW264.7)) (UniProt Q9WTX5).
Chain of UniProt Q9WTX5 (Q9WTX5 whole entry): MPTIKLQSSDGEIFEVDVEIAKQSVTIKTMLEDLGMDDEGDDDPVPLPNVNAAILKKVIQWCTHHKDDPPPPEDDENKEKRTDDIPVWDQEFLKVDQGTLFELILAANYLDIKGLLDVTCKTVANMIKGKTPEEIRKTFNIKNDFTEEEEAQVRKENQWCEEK

“GogB Δ264–352 (in-frame deletion of the F-box-like domain), HA-tagged, delivered by the T3SS (natural protein)” came in with an NFκB-driven luciferase in RAW264.7 cells infected with ΔgogB complemented with GogBΔ264–352 (F-box motif deleted), fold of wild type Salmonella (fold of wild type) of 4.

For the substance “GogB-NT (amino acids 1-253, N-terminal LRR domain), HA-tagged, delivered by the T3SS (domain or fragment)”, the NFκB-driven luciferase in RAW264.7 cells infected with ΔgogB complemented with GogB-NT (C-terminal domain deleted), fold of wild type Salmonella (fold of wild type) is 4.
